Source: article PMC2834670

Target: T1, MleR (Streptococcus mutans UA159?) (UniProt Q8DWC9)
T1 sequence: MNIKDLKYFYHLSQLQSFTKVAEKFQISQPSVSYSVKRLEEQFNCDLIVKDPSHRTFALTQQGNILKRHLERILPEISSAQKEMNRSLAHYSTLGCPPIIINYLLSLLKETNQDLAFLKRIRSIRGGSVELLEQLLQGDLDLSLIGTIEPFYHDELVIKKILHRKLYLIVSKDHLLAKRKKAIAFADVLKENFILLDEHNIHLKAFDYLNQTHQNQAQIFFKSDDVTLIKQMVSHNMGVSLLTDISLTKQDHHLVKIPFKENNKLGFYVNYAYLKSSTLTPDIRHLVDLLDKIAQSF
Assay: EMSA
Conditions: 20 mM Tris pH 7.5, 100 mM KCl, 2 mM EDTA, 10% glycerol, ~100 ng MleR, equal amount of competitor DNA (EP10/11 at 75 ng/ul), 20 min ambient temperature; 4.5% …

In the case of “GGTATCTTTGCGGCTATGGATATCACAGGTGAAAAATTGACTGATCAAGTCTATCTCTGTTACGGTGGCGGTACAGCAGGTGCGGGTATTGCCTCTCGTGTCTTGCGTGAAA (double strand) [internal mleS fragment (137qF/R)]”, the binding is reported as “no binding”.
